Assay results: patent publication US20180044416A1

These substances were tested against human FcRn with human beta2M on MDCK II clone 15 cells (human) (UniProt P55899) (assay: cell-based or functional assay).
UniProt P55899, sequence (P55899 24-365, chain 1 of 2): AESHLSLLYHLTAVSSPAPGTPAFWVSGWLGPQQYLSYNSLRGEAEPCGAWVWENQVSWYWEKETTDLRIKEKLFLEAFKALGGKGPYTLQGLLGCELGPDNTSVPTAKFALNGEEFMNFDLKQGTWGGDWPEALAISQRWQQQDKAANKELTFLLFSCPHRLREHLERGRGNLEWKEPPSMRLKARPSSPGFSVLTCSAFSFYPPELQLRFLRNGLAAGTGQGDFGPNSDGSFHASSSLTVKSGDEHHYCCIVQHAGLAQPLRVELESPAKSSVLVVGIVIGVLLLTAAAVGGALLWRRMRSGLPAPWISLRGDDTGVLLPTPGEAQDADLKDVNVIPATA
UniProt P55899, sequence (P61769 21-119, chain 2 of 2, further chain): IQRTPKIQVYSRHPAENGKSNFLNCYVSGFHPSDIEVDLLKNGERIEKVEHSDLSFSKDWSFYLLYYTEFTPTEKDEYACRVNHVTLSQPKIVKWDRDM

| Substance | Blockade of IgG intracellular uptake EC50 [µg/mL] | Blockade of IgG recycling EC50 [µg/mL] | Blockade of IgG recycling, maximal inhibition [%] |
| --- | --- | --- | --- |
| IgG4 IgM tail-piece, T307A (Fc fusion) | 0.5 | – | – |
| IgG1 IgM tail-piece, V308P (Fc fusion) | 0.34 | 0.55 | – |
| IgG1 IgM tail-piece, H310L (Fc fusion) | – | – | 45 |
| IgG1 IgM tail-piece, V308F (Fc fusion) | 0.12 | 0.073 | – |
| IgG4 IgM tail-piece, V308P (Fc fusion) | 0.51 | 0.42 | – |
| IgG1 IgM tail-piece, T307A (Fc fusion) | 0.54 | 0.35 | – |
| IgG4 IgM tail-piece, V308F (Fc fusion) | 0.42 | 0.56 | – |
